Reference: the nanobody polyreactivity screen of Harvey et al. (2022)

Assay: yeast display, Sf9 membrane polyspecificity reagent, FACS + sequencing; frameworks hold sequencing errors
Summary of the method: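 Genes from sorted yeast were amplified by colony PCR, read by MiSeq 2 × 250 sequencing and filtered on CDR length. These cells carried a synthetic nanobody library in Saccharomyces cerevisiae BJ5465 and were sorted by FACS into low and high (top ~1%) gates on anti-HA and streptavidin fluorescence. Polyreactivity is labelled according to the gate of origin.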

QVQLVESGGGLVQAGGSLRLSCAASGSTIRGYAMGWYRQVTGKEREMGADISWSGTSTKYADSVKGRFTISRDNAKNTVYLQMNSLKPEDTAVYYCAKRYVRFPWRMDYWGQGTQVTVSS
polyreactivity (PSR sort gate): high polyreactivity

QVQLVESGGGLVQAGGSLRLSCAASGRTFSKYTMGWYRQATGKERELVAVISRSGTRTYYADSVKGRFTISRDNAKNTVYLQMNSLKREDTAVYYCAAKDERRSFGMGYWGQGTQVTVSS
polyreactivity (PSR sort gate): high polyreactivity

QVQLQESGGGLVQAGGSLRLSCAASGNISVTGVMGWYRQAPGKERELVASIGIGGTTYYADSVKGRFSISRDNAKNTVYLQMNSLKPEDTAVYYCGARYVYSAYSYWGQGSQVTVSS
polyreactivity (PSR sort gate): low polyreactivity

HVQLVESGGGLVQAGGSLRLICAASGGTFAGYSMGWYRQAPGKDRELVAAITYRSSTTYYADSVKGRFTISRDNAKNTVYLQMNSLKPEDTAVYYCAARTRGTGRNLDYWGQGTQVNVSS
polyreactivity (PSR sort gate): high polyreactivity

QVQLVESGGGLVQAGGSLRLSCAASGSTFDGNAMGWNRQAPGKERELVAAITRAGRTSYADSVKGRFTISRDNAKNTVYLQMNCLKPEDTAVFYCAKGGYDYWGQGTQVTVSS
polyreactivity (PSR sort gate): low polyreactivity

QVQLVESGGGLVQAGGSLRLSCAASGRILYSYPMGGYRQAPGKERELVASISLSGGRTYADSVKGRFTISRDNAKNTVFLQMNSLKPVDTAVYYCNARIRTSRYLWPFDYWGQGTQVTVSS
polyreactivity (PSR sort gate): high polyreactivity

QVQLVESGGGLVQAGGSLRLSCAASGSIFDTYAMGWYRQAPGKERELVAAITWSGSSTYYADSVKGRFTISRDNSKNTVYLQMNSLKPEDTAVYYCAKDYYREVTTEYDYWGQGTQVTVSS
polyreactivity (PSR sort gate): high polyreactivity

QVQLVESGGGLVQAGGSLRLSCAASGRTFRPYAMGWYRQAPGKEREFVARITWSGGTTYYADSVKGRFTISRDNAKNTVYLQMNSLKPEDTAVYYCAARVSRQTPLISYNYWGQGTQVTVSS
polyreactivity (PSR sort gate): low polyreactivity

QVQLVESGGGLVQAGGSLRLSCAASGSIFLYNAMGWYRQAPGKERELVAAISRSSTSTYYSDSVKGRFTISRDNAKNTVYLQMNSLKPEDTAVYYCAARGRVTYWGQGTQVTVSS
polyreactivity (PSR sort gate): high polyreactivity

QVQLVESGGGLVQAGGSLRLSCAASGRSFSIYAMGCYRQAPGKERELVASISRGISTNYADSVKGRFTISRDNAKNTVYLQMNSLKPEDTAVYYCASDLFSNYRYWGQGTQVTVSS
polyreactivity (PSR sort gate): high polyreactivity

QVQLVESGGGLVQAGGRLRISCAASGRTFGHYAMGWYRQAPGKQRELVAAINRSGGITYYADSVRGRFTISRDNAKNTVYLQMNSLKPEDPAVDYCAAASPGRYDYWGQGTQETVSS
polyreactivity (PSR sort gate): high polyreactivity

QVQLVESGGGLVQAGGSLRLSCAASGLIFSAYAMGWYRQAPGKERELVAGISRRGSTYYADSVKGRFTISRDNAKNTVYLQMNSLKPEDTAVYYCAAYFRVRFRASGYDYWGQGTQVTVSS
polyreactivity (PSR sort gate): high polyreactivity

QVQLVESGGGLVPAGGSLRLSWAASGRIFPRNTMGWYRQAPGKERELVAAISVSGGSTYYADSVKGRFTISRDNAKNTVYLQMNSLKPEDTAVYYSAARSARLEYYYWGQGTQVTVSS
polyreactivity (PSR sort gate): high polyreactivity

QVQLVESGGGLVQAGGSLSLSCAASGSILGYYAMGWYRQAPGKERELVAAISGRGGSTYYADSVKGRFTISRDNAKNPVYLQMNSLKPEDTAVYYCAKRSVWRGWGQGTQVTVSS
polyreactivity (PSR sort gate): high polyreactivity

QVQLVESGGGLVQAGGSLRLSCAASGRIFRLYAMGWYRQAPGKEREFVATITWIGGRTYYADSVKGRFTISRDNAKNTVYLQMNSLKPEDTAVYYCAADPGYTYEYWGQGTQVTVSS
polyreactivity (PSR sort gate): low polyreactivity

QDQLVESVGSLVQAGGSHRLSCSASGFIIANNPMGWYRQAPGKERELVATITGGGSTDYADTVKRRFTISRDNAKNTVYLQMNSLKPEDTAVYYCAAEYKYWAFASPSLTTNDSWGQGTQVTVSS
polyreactivity (PSR sort gate): low polyreactivity

QVQLVESGGGLVQAGGSLRLSCAASGRIFAVNAMGWYRQAPGKERELVASIRWSGGSTYYADSVKGRFTISRDNAKNTVYLQMNSLKPEDTAVYYCAAVFYLWGQGTQVTVSS
polyreactivity (PSR sort gate): high polyreactivity

QDQLVESGGGLVQAGGSLRLSCAASGITFFYYAMGWYRQAPGKERELVAAINWSGRTYYADSVKGRFTISRDNAKNTVYLQINSLKPEDTAVYYCAAVTYGPGVSVMDYWGQGTQVTVSS
polyreactivity (PSR sort gate): low polyreactivity

QVQLVESGGGLVQAGGSLRLSCAASGRIFNLYGMGWYRQAPGKEREFVATITWSGVTTYADSVKGRFTISRDNAKNTVYLQMNSLKPEDTAVYYCAADYRYRTRWYDYWGQGTQVTVSS
polyreactivity (PSR sort gate): high polyreactivity

QVQLVESGGGLVQAGGSLRLSSAASGSTFTRYGMGWYRQAPGKERELVAAITTSGSSTYYADSVKGRFTISRDNAKNTVYLQMNSLKPEDTAVYYCAADWSSWGFDYWGQGTQVTVSS
polyreactivity (PSR sort gate): low polyreactivity

QVQLVESGGGLVQAGGILRLSCAASGFIFALNAMGWYRQAPGKERELVATIDSTSGSTYYADSVKGRFTISRDNAKNTVYLQMNSLKPEDTAVYYCAVVHAQSAPMDYWGQGTQVTVSS
polyreactivity (PSR sort gate): low polyreactivity

QVQLVESGGGLVQAGGSLRLSCAASGRTFYNAMGWYRQAPGKERELVAAITTGGGTKYADSVKGRFTISRDNAKNTVYLQMNSLKPEDTAVYYCNAYRQYRYDYWGQGTQVTVSS
polyreactivity (PSR sort gate): low polyreactivity

QVQLVESGGGLVQAGGSLRLSCAASGRIFHTYGMGWYRQAPGKVRELVAAITWTGGSTYYADSVKGRFTISRDNAKNTVYLQMNSLKPEDTAVYYCNARYVYHSSFAGFDYWGQGTQVTVSS
polyreactivity (PSR sort gate): low polyreactivity

QVQLVESGGGLVQAGGSLRLSCAASGSIIYLYTMGWYRQAPGKERELVAAISSSGSSTYYADSVKGRFTISRDNAKNTVYLQMNSLKPEYTSVYYCAARYSYDSYYWGKGTQVTVSS
polyreactivity (PSR sort gate): high polyreactivity

QGQLVESGGGLVQAGGSLRLSCAASGSIVWYNAMGWYRQAPGKERELVAAINWSGGSTFYADSVKGRFTISRDNAKNTVYLQMYSLKPEDTAVYYCAADDWYTGYDYWGQGTQVTVSS
polyreactivity (PSR sort gate): high polyreactivity

QVQRVESAGGLVQAGGSLRLSSAASGFTFRRYAMGWYRQARGKERELVARITWSGTSTDYADSEKGRFTISRDNAKNTVYLQMNSLKPEDTAVYYCAKAYTPWSGRYFAGVGYYYWGQGTQVTVSS
polyreactivity (PSR sort gate): high polyreactivity

QVQLVESGGGLVQAGGSLRLICAASGYTFPYAMGWYRQAPGKERELVAAISRSGASTYYADSVKGRFTISRDNAKNTVYLQMNSLKPEDTAVYYCATRRVYSTRVKFYYWGQGTQVTVSS
polyreactivity (PSR sort gate): high polyreactivity

QLQLVESFTGLVQAGGSLRLSCAASVPTFASYAMGWSRQAPGKERELVAVITRGVRTYYADSVKGRITISRDNAMNTVYLQMNSLKPEDTAVYDCAKERYNANYDTSLYDYWGQGTQGTVSS
polyreactivity (PSR sort gate): low polyreactivity

QVQLVESGGGLVQAGGSLRLSCAASGIIFYRNTMGWYRQAPGKERELVAAIRRGGNTYYADSVKGRFTISRDNAKNTVYLQMNSLKPEDTAVYYCAAEDYNGRQYYHKMDYWGQGTQVTVSS
polyreactivity (PSR sort gate): high polyreactivity

QVQLVESGGGLVQAGGSLRLSCAASGSTFYTYAMGWYRQAPGKERELVAAITYSGGTTYYADSVKGRFTISRDNAKNTVYLQMNSLKPEDTAVYYCNTRSYYYSDDYWGQGTQVTVSS
polyreactivity (PSR sort gate): low polyreactivity

QVQLVESGGGLVQAGASLRLSCPPSGFIFSLYAMGWYSQAPGKERELVADISWGDGTTYYADSVKGRFTISRDNAKNTVYLQMNSLKPEDTAVYYCAADSVSNWYWFNYWGQGTQVTVSS
polyreactivity (PSR sort gate): high polyreactivity

QVQLVESGGGLVQAGGSLSLSCAASGINFWRYAMGWYRPAPGKERELVAGITSRGGSTYYADSVKGRFTISRDNAKNTVYLQMNSLKPEDTAVYYCNADWYGQLWWGVDYWGQGTQVTVSS
polyreactivity (PSR sort gate): high polyreactivity

QVQLVESGGGLVQAGGSLRLSCAASVRTFVVYAMGWYRQAPGKEREMVAVISFTGDSTFYADSVKGRFTISRDNAKNTVYLQMNSLKPEDTAVYYCNAGPYTYLHWNQAISRYYYWGQGTQVTVSS
polyreactivity (PSR sort gate): low polyreactivity

QVQLVESGRGLVQAGGSLRLSCAASGSTFKRYVIGWYRQAPGKERELVAVINCSGGSTYADSVKGRYTISRDNAKNTVYLQMNSLKPEDTAVYYCAKYKYYRYWGQRTQVTVSS
polyreactivity (PSR sort gate): high polyreactivity

QDQLVESGGGLVQAGGSLRISCAASGSTFIYNAMGWYRQAPGKERELVATITGRGSTYYAYSVKGRFTISRDNAKNTVYLQLNSLKPEDTAVYYCAATIFNSFYWRYGYWGQGSQVTVSS
polyreactivity (PSR sort gate): low polyreactivity

QVQLVESGGGLVQAGGSLRLSCAASGRIFARNAMGWYRPEPGKERELVAGITWSTASTYYADSVKGRFTISLDNAKNTVYLQMNSLKPEDTAVYYCAADSYYYYDYWYVYLYDYWGQGTQVTVSS
polyreactivity (PSR sort gate): high polyreactivity

QVQLVESGGGKVQEGGSLRISCAASGSIFITYAMGWYRQAPGKERELVAAIRDSGDRTYYADSVKGRFTISRDNAKNTVYFQMNSLKPEDTAVYYCNARCQEPLKYDYWGQGTQVIVSS
polyreactivity (PSR sort gate): low polyreactivity

QDQLVESGGGLVQAGGSLRLSCAASGLIFARYAMGWYIQAPGKERELVAVISGRGGGTYYADSVKGRFTISRDNAKNTVYLQMNSLKPEDTAVYYCNKYGYKGGVGYDYWGQGTQVTVSS
polyreactivity (PSR sort gate): high polyreactivity

QVQLVESGGGLVQAGGSLRLSCAASGLIFYKNAMGWYRQAPGKEREFVAAISRSGASTYYADSVKARFTISRDNAKNTVYLQMNSLKPEDTAVYYCAARAGANYRMDYWGQGTQVTVSS
polyreactivity (PSR sort gate): high polyreactivity

QVQLVESGGGLVQAGGSLRLSCAASGIIFSYNVMGWYRQAPGKEREFVADITWNGGSTYYADSVKGRFTISRDNAKNTVYLQMNSLKPEDTAVYYCATGWPWYSNYASAYDYWGQGTQVTVSS
polyreactivity (PSR sort gate): low polyreactivity

QVQLVESGGGLLQAGGSLRLSCAASGNIFTYYAMGWYRQAPGKERDLVAAIRWRSGSTYYADSVKGRFTISRDNAKNTVYLQMNSLKPEDTAVYYCADDGTPYEYDYWGQGTQVTVSS
polyreactivity (PSR sort gate): low polyreactivity

QVQLVESGGGLVQAGGSLRLSCAASGSTFRFNAMGWYRQAPGKEREFVAAIRFTGGSTYYADSVKGRFTISRDNAKNTVYLQMNSLKPEDSAVYYCNNADEYSTVEYDYWGQGTQVTVSS
polyreactivity (PSR sort gate): low polyreactivity

QVQLVESGGGLVQAGGSLSLSCAASGRTFWYKDMGWYRQAPGKERELVAVISSGAITFYADSVKGRFTISRDNAKNTVYLQMNSLNPEDTAVYYCAARSYLSLIDYWGQGTLVTVSS
polyreactivity (PSR sort gate): high polyreactivity
